T1: Candida antartica lipase fraction B (CALB) (Moesziomyces antarcticus, UniProt P41365)
T1 construct: purchased Boehringer Mannheim CHIRAZYME L-2
T1 sequence (P41365 26-342): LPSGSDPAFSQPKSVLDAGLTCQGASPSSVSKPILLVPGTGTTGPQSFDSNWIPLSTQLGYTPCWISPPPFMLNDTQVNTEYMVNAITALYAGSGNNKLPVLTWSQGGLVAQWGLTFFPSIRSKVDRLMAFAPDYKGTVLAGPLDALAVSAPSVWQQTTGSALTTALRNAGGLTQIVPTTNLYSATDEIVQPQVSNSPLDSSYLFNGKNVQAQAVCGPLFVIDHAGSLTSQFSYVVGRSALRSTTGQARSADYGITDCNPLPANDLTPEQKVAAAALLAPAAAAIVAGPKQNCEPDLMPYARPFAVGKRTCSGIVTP

B1: lipase (Chirazyme L7): commercial enzyme preparation, source porcine pancreas (protein, UniProt P00591 1-450, looked up)
Pancreatic triacylglycerol …: SEVCFPRLGCFSDDAPWAGIVQRPLKILPWSPKDVDTRFLLYTNQNQNNYQELVADPSTITNSNFRMDRKTRFIIHGFIDKGEEDWLSNICKNLFKVESVNCICVDWKGGSRTGYTQASQNIRIVGAEVAYFVEVLKSSLGYSPSNVHVIGHSLGSHAAGEAGRRTNGTIERITGLDPAEPCFQGTPELVRLDPSDAKFVDVIHTDAAPIIPNLGFGMSQTVGHLDFFPNGGKQMPGCQKNILSQIVDIDGIWEGTRDFVACNHLRSYKYYADSILNPDGFAGFPCDSYNVFTANKCFPCPSEGCPQMGHYADRFPGKTNGVSQVFYLNTGDASNFARWRYKVSVTLSGKKVTGHILVSLFGNEGNSRQYEIYKGTLQPDNTHSDEFDSDVEVGDLQKVKFIWYNNNVINPTLPRVGASKITVERNDGKVYDFCSQETVREEVLLTLNPC
B2: protease, trypsin bovine pancreas: commercial trypsin, source bovine pancreas (protein, UniProt P00760 24-246, looked up)
Serine protease 1: IVGGYTCGANTVPYQVSLNSGYHFCGGSLINSQWVVSAAHCYKSGIQVRLGEDNINVVEGNEQFISASKSIVHPSYNSNTLNNDIMLIKLKSAASLNSRVASISLPTSCASAGTQCLISGWGNTKSSGTSYPDVLKCLKAPILSDSSCKSAYPGQITSNMFCAGYLEGGKDSCQGDSGGPVVCSGKLQGIVSWGSGCAQKNKPGVYTKVCNYVSWIKQTIASN

What was measured:
Assay type in all cases: biochemical
[1] = biological target: T1, Candida antartica lipase fraction B (CALB); experiment: Relative rates of hydrolysis of N-(alkoxycarbonyl)-trans-4-hydroxy-L-proline methyl esters by CALB; settings: for time to complete hydrolysis of the methyl ester / initial reaction rate: 50 mM substrate, 3.0 mg/mL CALB, 25° C.; for time to complete hydrolysis of the methyl ester: 0.100M potassium phosphate pH 7.0; for initial reaction rate: pH 7.0
Experimental: A 2.0 mL aqueous solution containing 50 mM N-(methoxycarbonyl)-trans-4-hydroxy-L-proline methyl ester, or 50 mM N-(ethoxycarbonyl)-trans-4-hydroxy-L-proline methyl ester, or 50 mM N-(tert-butoxycarbonyl)-trans-4-hydroxy-L-proline methyl ester in 0.100M potassium phosphate (pH 7.0) and 3.0 mg/mL of Candida antartica lipase fraction B was mixed at 25° C. The reactions were analyzed by removal of 0.200 mL aliquots at pre-determined times and mixing the sample with an equivalent volume of 0.100M propionic acid (HPLC internal standard) in water, and filtering the resulting solution through a 10K molecular weight cut-off filter to remove the enzyme. The filtrate was then analyzed by high pressure liquid chromatography on a HPX-87H column (Bio-Rad, 30 cm×7.8 mm) to determine the percent conversion of the N-(alkoxycarbonyl)-trans-4-hydroxy-L-proline methyl ester. Complete hydrolysis of the methyl ester of the N-methoxy-, N-ethoxy-, and N-tert-butoxycarbonyl derivatives occurred in 5 h, 2 h, and 6 h, respectively, and the initial reaction rates were 5.7, 18.7, and 3.3 micromoles/h/mg enzyme catalyst, respectively.

[2] = Enzyme screens for resolution of racemic N-(methoxycarbonyl)-4-keto-D,L-proline methyl ester (Example 1); settings: 0.100M racemate, 5.0 to 50 mg/mL enzyme, 25° C., optimum; for conv. (percent conversion of the racemate): 0.20M sodium succinate pH 6.0, 5 h or 0.20M sodium acetate pH 5.0, 24 h; for % ee (enantiomeric excess of the D-isomer; L-isomer with porcine liver esterase): pH 6.0, 5 h or pH 5.0, 24 h
Experimental: (§1) An aqueous solution (1.0 mL) containing 0.100M racemic N-(methoxycarbonyl)-4-keto-D,L-proline methyl ester in either 0.20M sodium succinate (pH 6.0) or 0.20M sodium acetate (pH 5.0) was mixed with 5.0 to 50 mg/mL of commercial enzyme preparations (listed in the table below) at 25° C. […] The dichloromethane extract was then analyzed by chiral gas chromatography on a Chiraldex G-TA column (Advanced Separation Technologies, Inc., 50 m×0.32 mm ID) to determine the percent conversion of the racemate, and the enantiomeric excess of the N-(methoxycarbonyl)-4-keto-D-proline methyl ester.

[3] = Enzyme screens for resolution of racemic N-(methoxycarbonyl)-4,4-dimethoxy-D,L-proline methyl ester (Example 8, comparative); settings: 0.100M racemate, 6 h or 17 h, 5.0 to 30 mg/mL enzyme, 25° C.; for conv. (percent conversion of the racemate): 0.25M potassium phosphate pH 7.0; for % ee (enantiomeric excess of the D-isomer): pH 7.0
Experimental: An aqueous solution (1.0 mL) containing 0.100M racemic N-(methoxycarbonyl)-4,4-dimethoxy-D,L-proline methyl ester in 0.25M potassium phosphate (pH 7.0) was mixed with 5.0 to 30 mg/mL of commercial enzyme preparations (listed in the table below) at 25° C. […] The ethyl acetate extract was then analyzed by chiral gas chromatography on a Chiraldex G-TA column (Advanced Separation Technologies, Inc., 50 m×0.32 mm ID) to determine the percent conversion of the racemate, and the enantiomeric excess of N-(methoxycarbonyl)-4,4-dimethoxy-D-prolinemethyl ester.

[4] = Enzyme screens for resolution of diastereomeric mixture CHDP(MEMC)/THLP(MEMC) (Example 9); settings: 0.050M each isomer, 5 h or 24 h, 5.0 to 50 mg/mL enzyme, 25° C.; for conv. (percent conversion of the diastereomeric mixture): 0.100M potassium phosphate pH 7.0; for % de (diastereomeric excess of the D-isomer, CHDP(MEMC)): pH 7.0
Experimental: (§2) An aqueous solution (1.0 mL) containing 0.050M N-(methoxycarbonyl)-trans-4-hydroxy-L-proline methyl ester and 0.050M N-(methoxycarbonyl)-cis-4-hydroxy-D-proline methyl ester in 0.100M potassium phosphate (pH 7.0) was mixed with 5.0 to 50 mg/mL of commercial enzyme preparations (listed in the table below) at 25° C. The reactions were analyzed after 5 h or 24 h by removal of a 0.200 mL sample and mixing with an equivalent volume of 0.100M propionic acid (HPLC internal standard) in water. The resulting solution was filtered through a 10K molecular weight cut-off filter to remove the enzyme and the filtrate analyzed by high pressure liquid chromatography on a HPX-87H column (Bio-Rad, 30 cm×7.8 mm) to determine the percent conversion of each isomer of the diastereomeric mixture, and the diastereomeric excess of the N-(methoxycarbonyl)-cis-4-hydroxy-D-proline methyl ester.

[5] = Enzyme screens for resolution of diastereomeric mixture CHLP(MEMC)/THLP(MEMC) (Example 13); settings: 0.050M each isomer, 5 h, 5.0 to 50 mg/mL enzyme, 25° C.; for conv. (percent conversion of the diastereomeric mixture): 0.100M potassium phosphate pH 7.0; for % de (diastereomeric excess of the cis-L-isomer): pH 7.0
Experimental: as §2, with “solution” for “solution (1.0 mL)”, “N-(methoxycarbonyl)-cis-4-hydroxy-L-proline” for “N-(methoxycarbonyl)-cis-4-hydroxy-D-proline”, “5” for “5 h or 24”, “of” for “of each isomer of”

[6] = Enzyme screens for resolution of racemic N-(acetyl)-4-keto-D,L-proline methyl ester (Example 7, comparative); settings: 0.100M racemate, 5 h, 5.0 to 30 mg/mL enzyme, 25° C.; for conv. (percent conversion of the racemate): 0.20M sodium succinate pH 6.0; for % ee (enantiomeric excess of the D-isomer): pH 6.0
Experimental: as §1, with “racemic N-(acetyl)-4-keto-D,L-proline” for “racemic N-(methoxycarbonyl)-4-keto-D,L-proline”, “in” for “in either”, “6.0)” for “6.0) or 0.20M sodium acetate (pH 5.0)”, “to 30” for “to 50”, “the N-(acetyl)-4-keto-D-proline” for “the N-(methoxycarbonyl)-4-keto-D-proline”

Molecule | time to complete hydrolysis of the methyl ester [1] [h] | initial reaction rate [1] | initial rate of methyl ester hydrolysis, times faster than THLP(MEBOC) ([1]; CALB) [times] | initial rate of methyl ester hydrolysis, times faster than THLP(MEEC) as printed ([1]; CALB) | conv. (percent conversion of the racemate) [2] [%] | % ee (enantiomeric excess of the D-isomer; L-isomer with porcine liver esterase) [2] [%] | conv. (percent conversion of the racemate) [3] [%] | % ee (enantiomeric excess of the D-isomer) [3] [%] | conv. (percent conversion of the diastereomeric mixture) [4] [%] | % de (diastereomeric excess of the D-isomer, CHDP(MEMC)) [4] [%] | conv. (percent conversion of the diastereomeric mixture) [5] [%] | % de (diastereomeric excess of the cis-L-isomer) [5] [%] | conv. (percent conversion of the racemate) [6] [%] | % ee (enantiomeric excess of the D-isomer) [6] [%]
COC(=O)[C@@H]1C[C@@H](O)CN1C(=O)OC(C)(C)C [THLP(MEBOC), N-(tert-butoxycarbonyl)-trans-4-hydroxy-L-proline methyl ester] | 6 | 3.3 micromoles/h/mg enzyme catalyst | – | – | – | – | – | – | – | – | – | – | – | –
CCOC(=O)N1C[C@H](O)C[C@H]1C(=O)OC [THLP(MEEC), N-(ethoxycarbonyl)-trans-4-hydroxy-L-proline methyl ester] | 2 | 18.7 micromoles/h/mg enzyme catalyst | ~1.7 | approximately 3.3 times | – | – | – | – | – | – | – | – | – | –
B1 | – | – | – | – | 0 | 0 | 10 | 0 | 0 | 0 | 0 | 0 | 0 | 0
B2 | – | – | – | – | 0 | 0 | 0 | 0 | 0 | 0 | 0 | 0 | 0 | 0
